Data published in patent US20090221680, “Aptamers that bind thrombin with high affinity” (published 2009).
Where a chain is given by its changes, count along the chain named.

B1: ARC2650 (ssDNA)
DNA: ACTGCCTAGGTTGGGTAGGGTGGTGGCAGT
modifications: PS linkage between nt 7 and 8
B2: ARC2646 (ssDNA)
DNA: B1 DNA
modifications: PS linkage between nt 3 and 4
B3: ARC2648 (ssDNA)
DNA: B1 DNA
modifications: PS linkage between nt 5 and 6
B4: ARC2668 (ssDNA)
DNA: B1 DNA
modifications: PS linkage between nt 25 and 26
B5: ARC2672 (ssDNA)
DNA: B1 DNA
modifications: PS linkage between nt 29 and 30
B6: ARC2647 (ssDNA)
DNA: B1 DNA
modifications: PS linkage between nt 4 and 5
B7: ARC2649 (ssDNA)
DNA: B1 DNA
modifications: PS linkage between nt 6 and 7
B8: ARC2652 (ssDNA)
DNA: B1 DNA
modifications: PS linkage between nt 9 and 10
B9: ARC2671 (ssDNA)
DNA: B1 DNA
modifications: PS linkage between nt 28 and 29
B10: ARC2670 (ssDNA)
DNA: B1 DNA
modifications: PS linkage between nt 27 and 28
B11: ARC2651 (ssDNA)
DNA: B1 DNA
modifications: PS linkage between nt 8 and 9
B12: ARC2667 (ssDNA)
DNA: B1 DNA
modifications: PS linkage between nt 24 and 25
B13: ARC2662 (ssDNA)
DNA: B1 DNA
modifications: PS linkage between nt 19 and 20
B14: ARC2663 (ssDNA)
DNA: B1 DNA
modifications: PS linkage between nt 20 and 21
B15: ARC2664 (ssDNA)
DNA: B1 DNA
modifications: PS linkage between nt 21 and 22
B16: ARC2654 (ssDNA)
DNA: B1 DNA
modifications: PS linkage between nt 11 and 12
B17: ARC2665 (ssDNA)
DNA: B1 DNA
modifications: PS linkage between nt 22 and 23
B18: ARC2669 (ssDNA)
DNA: B1 DNA
modifications: PS linkage between nt 26 and 27
B19: AMX(399)_F10 (ssDNA)
DNA: TCCCGTCGGTCCGTTCGGTATTTTTTTCTGGGTGGCTGAGGATCGATC
B20: AMX(399)_G8 (ssDNA)
DNA: TCCCATCGATCTGTGGTGGTTTTGTGGCTTGGGTGGCTGAGGATCGATC
B21: AMX(399)_G12 (ssDNA)
DNA: TCCCGGATCCTCGTGGGTATTGTTGGGTTGGGTGGCTGAGGATCGATC
B22: AMX(399)_G5 (ssDNA)
DNA: TCCCGGTATCGTCATGCTGGTGGAATTGGTTGGGTGGCTGAGGATCGATC
B23: AMX(399)_E12 (ssDNA)
DNA: TCCCGAGATCTTTATAGGGTATTGTTGGTTGGGGTGGCTGAGGATCGATC
B24: AMX(399)_H6 (ssDNA)
DNA: TCCCGGAGATCTGAGGTGTTTTATTGGTTTGGGTGGCTGAGGATCGATC
B25: AMX(399)_H7 (ssDNA)
DNA: TCCCGGTTGTCGATTCTGGTATTGTTGGGCTGGGTGGCTGAGGATCGATC
B26: AMX(399)_G2 (ssDNA)
DNA: TCCCATCGTCTGTGGTATAGGAACTTCTGGGTGGCTGAGGATCGATC
B27: AMX(399)_F11 (ssDNA)
DNA: TCCCTATGGATTCGGGGTACGTTAGTTCTGGGTGGCTGAGGATCGATC
B28: AMX(399)_F6 (ssDNA)
DNA: TCCCAAGATCGATGCTGGTAGTGTTTTCTGGGTGGCTGAGGATCGATC
B29: AMX(399)_G6 (ssDNA)
DNA: TCCCATCGATCAGTGGTGGCTTGGCTGGTTTGGGTGGCTGAGGATCGATC
B30: AMX(399)_G11 (ssDNA)
DNA: TCCCCATCGATCCTGGTCTCTTTTGTTCTGGGTGGCTGAGGATCGATC
B31: AMX(399)_F1 (ssDNA)
DNA: TCCCGTGATCTCTGGGGTAACGTCTTGGTGTGGGTGGCTGAGGATCGATC
B32: AMX(399)_F9 (ssDNA)
DNA: TCCCGCTATTCGATCTTCAATTGGGTGGTCAGGGTGGCTGAGGATCGATC
B33: AMX(399)_H4 (ssDNA)
DNA: TCCCGAGAGATTCAAAAGGGACTGGGCGGTTGGGTGGCTGAGGATCGATC
B34: AMX(399)_G10 (ssDNA)
DNA: TCCCGATCGCTGTCCTAGGATGGGTAGGGTGGTGGCTGAGGATCGATC
B35: AMX(399)_F2 (ssDNA)
DNA: TCCCTTGATCCTGGTACATATATTTTCTGGGTGGCTGAGGATCGATC
B36: AMX(399)_F4 (ssDNA)
DNA: TCCCGTTCGGTCCGTATACTGGTGGTGGTTGGGTGGCTGAGGATCGATC
B37: AMX(398)_C3 (ssDNA)
DNA: TCCCATGTGTTAGATCCGTGTGGTTGGACTGGGTGGCTGAGGATCGATC
B38: AMX(399)_H2 (ssDNA)
DNA: TCCCGACTTTAGATCCGTGTTGGATGGCCTGGGTGGCTGAGGATCGATC
B39: AMX(399)_G9 (ssDNA)
DNA: TCCCGTGAGAGCTGGGGTGTTTATATGGGTCGGGTGGCTGAGGATCGATC
B40: AMX(399)_G3 (ssDNA)
DNA: TCCCATCGAACCTCGAGGGTATTGTTGGCTTGGGTGGCTGAGGATCGATC
B41: AMX(399)_H1 (ssDNA)
DNA: B40 DNA with C29T
B42: AMX(398)_B11 (ssDNA)
DNA: TCCCGCTCGATTTCGAAGAATGGTTGGTTTGGGTGGCTGAGGATCGATC
B43: AMX(399)_F3 (ssDNA)
DNA: TCCTTGTCGAGCCTTGGGGTAGTGTTGGTTTGGGTGGCTGAGGATCGATC
B44: AMX(399)_F7 (ssDNA)
DNA: TCCCGATCGGTCCCAAGGGTATTGTTGGTTTGGGTGGCTGAGGATCGATC

Biological target: T1, thrombin (alpha-thrombin) (Homo sapiens, UniProt P00734;P00734 P00734:315-363,P00734:364-622)
Assay: filter
Settings: not given

Q: For B1, which Kd is on record?
A: 0.23 nM

Q: Which Kd does the source give for B2 here?
A: 0.169 nM

Q: For B3, which Kd is on record?
A: 0.128 nM

Q: B4 was tested. Which Kd did it give?
A: 0.159 nM

Q: With B5 as the binder, how does the Kd read?
A: 0.141 nM

Q: With B6 as the binder, how does the Kd read?
A: 0.161 nM

Q: For B7, which Kd is on record?
A: 0.264 nM

Q: With B8 as the binder, how does the Kd read?
A: 0.192 nM

Q: How did the Kd turn out when B9 was run?
A: 0.158 nM

Q: How did the Kd turn out when B10 was run?
A: 0.16 nM

Q: Which Kd does the source give for B11 here?
A: 0.111 nM

Q: B12 was tested. Which Kd did it give?
A: 0.459 nM

Q: B13 was tested. Which Kd did it give?
A: 0.165 nM

Q: For B14, which Kd is on record?
A: 0.18 nM

Q: How did the Kd turn out when B15 was run?
A: 0.211 nM

Q: B16 was tested. Which Kd did it give?
A: 0.095 nM

Q: B17 was tested. Which Kd did it give?
A: 0.121 nM

Q: With B18 as the binder, how does the Kd read?
A: 0.129 nM

Biological target: T1, thrombin (alpha-thrombin)
Assay: filter; 10 nM thrombin
Settings: not given

Q: With B19 as the binder, how does the binding signal read?
A: 21.3 % bound

Q: B20 was tested. Which binding signal did it give?
A: 27.6 % bound

Q: For B21, which binding signal is on record?
A: 40.6 % bound

Q: How did the binding signal turn out when B22 was run?
A: 23.2 % bound

Q: How did the binding signal turn out when B23 was run?
A: 20.3 % bound

Q: Which binding signal does the source give for B24 here?
A: 8.48 % bound

Q: Which binding signal does the source give for B25 here?
A: 38.1 % bound

Q: With B26 as the binder, how does the binding signal read?
A: 18.8 % bound

Q: With B27 as the binder, how does the binding signal read?
A: 35.1 % bound

Q: Which binding signal does the source give for B28 here?
A: 10 % bound

Q: For B29, which binding signal is on record?
A: 39.7 % bound

Q: With B30 as the binder, how does the binding signal read?
A: 12.8 % bound

Q: Which binding signal does the source give for B31 here?
A: 16.7 % bound

Q: Which binding signal does the source give for B32 here?
A: 25.2 % bound

Q: With B33 as the binder, how does the binding signal read?
A: 7.7 % bound

Q: For B34, which binding signal is on record?
A: 38.4 % bound

Q: How did the binding signal turn out when B35 was run?
A: 7.37 % bound

Q: Which binding signal does the source give for B36 here?
A: 28.1 % bound

Q: For B37, which binding signal is on record?
A: 10.8 % bound

Q: How did the binding signal turn out when B38 was run?
A: 5.49 % bound

Q: B39 was tested. Which binding signal did it give?
A: 21.3 % bound

Q: With B40 as the binder, how does the binding signal read?
A: 20.8 % bound

Q: B41 was tested. Which binding signal did it give?
A: 21.2 % bound

Q: Which binding signal does the source give for B42 here?
A: 9.76 % bound

Q: B43 was tested. Which binding signal did it give?
A: 9.8 % bound

Q: How did the binding signal turn out when B44 was run?
A: 29.6 % bound

Biological target: prothrombin (Homo sapiens, UniProt P00734 P00734:44-622)
Assay: filter; 50 nM prothrombin
Settings: tags: Athens Research
Protocol: Dot blot binding assays were performed throughout the selections to monitor the protein binding affinity of the pools. Trace ³²P-labeled RNA was combined with a dilution series of human Thrombin (1 nM-1000 nM) and incubated at room temperature for 30 minutes in 1×DPBS (w/ Ca²⁺ and Mg²⁺) (Gibco, Catalog #14040, Invitrogen, Carlsbad, Calif.) plus 0.1 mg/ml BSA in a final volume of 30 μl. The binding reactions were analyzed by nitrocellulose filtration using a Minifold I dot-blot, 96-well vacuum filtration manifold (Schleicher & Schuell, Keene, N.H.). A three-layer filtration medium was used, consisting (from top to bottom) of Protran nitrocellulose (Schleicher & Schuell, Keene, N.H.), Hybond-P nylon (Amersham Biosciences, Piscataway, N.J.) and GB002 gel blot paper (Schleicher & Schuell, Keene, N.H.). RNA that is bound to protein is captured on the nitrocellulose filter, whereas the non-protein bound RNA is captured on the nylon filter. The gel blot paper was included simply as a supporting medium for the other filters. Following filtration, the filter layers were separated, dried and exposed on a phosphor screen (Amersham Biosciences, Piscataway, N.J.) and quantified using a Storm 860 Phosphorimager® blot imaging system (Amersham Biosciences, Piscataway, N.J.).
Based on pool binding monitored throughout the selections as described above, Round 9 Pools from both Selection #2 and #3 were also cloned using a TOPO TA Cloning kit (Invitrogen, Carlsbad, Calif.) according to manufacturer's instructions, and sequenced. Of the 136 sequences obtained from Round 9 of both selections, 130 unique sequences were selected for assaying in a single-point dot blot screen against thrombin and prothrombin to test for selective binding to thrombin. Clones were ordered from IDT (Coralville, Iowa) at 25 μmole synthesis scale. Clone transcripts were 5′ end labeled with γ̅³²P ATP and spin purified with Centrisep columns (Princeton Separations, Adelphia, N.J.) to remove excess label. Trace amounts of labeled clone were incubated with +/−10 nM Thrombin (or +/−50 nM prothrombin) and 0.1 mg/ml BSA in a total volume of 30 μl 1×DPBS (w/ Ca²⁺ and Mg²⁺) (Gibco, Catalog #14040, Invitrogen, Carlsbad, Calif.) for 30 minutes. Post incubation, the binding reaction applied the dot-blot binding assay apparatus previously described.

Q: With B19 as the binder, how does the binding signal read?
A: 22.1 % bound

Q: For B20, which binding signal is on record?
A: 25.9 % bound

Q: For B21, which binding signal is on record?
A: 41.1 % bound

Q: Which binding signal does the source give for B22 here?
A: 18.9 % bound

Q: B23 was tested. Which binding signal did it give?
A: 25.1 % bound

Q: B24 was tested. Which binding signal did it give?
A: 6.32 % bound

Q: With B25 as the binder, how does the binding signal read?
A: 36.1 % bound

Q: For B26, which binding signal is on record?
A: 7.28 % bound

Q: For B27, which binding signal is on record?
A: 35.7 % bound

Q: For B28, which binding signal is on record?
A: 11.9 % bound

Q: With B29 as the binder, how does the binding signal read?
A: 38.6 % bound

Q: How did the binding signal turn out when B30 was run?
A: 11.8 % bound

Q: With B31 as the binder, how does the binding signal read?
A: 19.4 % bound

Q: Which binding signal does the source give for B32 here?
A: 26 % bound

Q: Which binding signal does the source give for B35 here?
A: 7.92 % bound

Q: For B36, which binding signal is on record?
A: 25 % bound

Q: With B39 as the binder, how does the binding signal read?
A: 22.5 % bound

Q: How did the binding signal turn out when B40 was run?
A: 22.6 % bound

Q: Which binding signal does the source give for B41 here?
A: 20.4 % bound

Q: With B43 as the binder, how does the binding signal read?
A: 8.7 % bound

Q: Which binding signal does the source give for B44 here?
A: 34.2 % bound
